Source: patent publication US20170369592A1, “NOVEL ANTI-FIBROBLAST ACTIVATION PROTEIN (FAP) ANTIBODIES AND USES DERIVED THEREOF” (Mabimmune Diagnostics AG, priority 2015, published 2017)

Tests used:
FAP = biological target: T1, FAP (Homo sapiens, UniProt Q12884); test: Binding specificity ELISA versus CD26 and unrelated human antigens; settings: detection antibody at 20, 4 and 0.8 nM
T1 sequence (Q12884 1-760): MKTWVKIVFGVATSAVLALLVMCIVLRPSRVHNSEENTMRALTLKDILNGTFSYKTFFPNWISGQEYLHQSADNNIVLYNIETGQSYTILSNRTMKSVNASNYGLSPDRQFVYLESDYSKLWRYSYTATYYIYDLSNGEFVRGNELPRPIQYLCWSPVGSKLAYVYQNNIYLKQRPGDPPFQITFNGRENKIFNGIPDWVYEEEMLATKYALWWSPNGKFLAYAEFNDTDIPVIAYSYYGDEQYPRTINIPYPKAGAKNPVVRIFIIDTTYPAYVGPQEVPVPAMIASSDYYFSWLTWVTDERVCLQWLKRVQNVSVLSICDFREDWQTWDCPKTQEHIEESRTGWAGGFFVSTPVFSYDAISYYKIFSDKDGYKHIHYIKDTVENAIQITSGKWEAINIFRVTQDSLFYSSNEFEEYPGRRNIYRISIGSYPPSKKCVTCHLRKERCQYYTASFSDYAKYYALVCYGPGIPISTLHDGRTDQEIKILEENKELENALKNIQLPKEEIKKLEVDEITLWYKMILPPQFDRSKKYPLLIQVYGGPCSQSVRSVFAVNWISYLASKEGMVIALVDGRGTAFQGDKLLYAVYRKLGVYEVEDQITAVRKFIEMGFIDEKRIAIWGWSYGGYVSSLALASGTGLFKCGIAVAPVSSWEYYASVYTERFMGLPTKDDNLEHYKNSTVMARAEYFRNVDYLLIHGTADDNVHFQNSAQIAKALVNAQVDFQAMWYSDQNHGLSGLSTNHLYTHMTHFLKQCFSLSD
Experimental: A mouse anti-6×-histidine tag antibody (Clonetech) was coated at a concentration of 3 μg/ml in PBS to a 96 well ELISA plate, the plates were then blocked with 5% BSA in PBS, and enzymatically active recombinant human FAP with an N-terminus 6× histidine tag was added to the plates to be captured. The binding efficiency of NI-206.82C2 (at 20 nM, 4 nM, and 0.8 nM) against sFAP was then tested by 1 hour incubation, followed by washing with PBS and detection with an HRP-labelled goat anti-human antibody (Jackson Immunoresearch) using a colormetric assay. To assess NI-206.82C2 binding other targets, recombinant human CD26 and fourteen other unrelated recombinant human proteins (A-N) were individually added to a 96-well ELISA plate in triplicate, and the binding efficacy of NI-206.82C2 was evaluated. (FIG. 7A)

[1] = test system: murine CT-26 colorectal cancer tissue sections; test: Immunofluorescence on murine colorectal cancer tissue sections; parameters: species or system mouse; settings: Cy5 labelled antibody
Experimental: NI-206.82C2 was prelabelled with Cyanine 5 antibody labeling kit (Innova Biosciences, 342-0010), and sufficient antibody labelling was validated with a photospectrometer. Cryosections of mouse livers containing syngeneic CT-26 liver metastasis were allowed to dry for 30 min at room temperature the fixed for 10 min in 4% formalin in PBS. Slides were then washed 3 times for 5 minutes in PBS and blocked for 1 hr at room temperature with 5% bovine serum albumin in PBS. The slides were then incubated overnight at 4° C. with staining solution containing DAPI at 0.5 μg/mL, and Alexa 547 phalloidin (Invitrogen) according to the manufacturer's instructions, and either Cy5 labelled NI-206.82C2 or a Cy5 labelled isotype-matched control antibody 3A1 at a concentration of 10 µg/mL, in blocking solution with 0.5% Triton X100. Slides were then washed 3 times in PBS, mounted in Lisbeth's mounting medium, and imaged with an SP8 confocal microscope (Leica Microsystems).

[2] = test system: carotid artery photochemical injury-induced thrombosis; test: Carotid artery photochemical injury-induced thrombosis model; type: in vivo, mouse; settings: 95% confidence interval=0.01-0.16, p<0.0001
Experimental: The carotid artery photochemical injury-induced thrombosis model begins with anesthesia by intraperitoneal injection of sodium pentobarbital (87 mg/kg body weight). After slight tail warming (using warm water) rose bengal (10 mg/mL in PBS) is injected into the tail vein in a volume of 0.12 mL at a concentration of 50 mg/kg. Mice will then be secured in a supine position (with the head pointing towards the operator) and placed on a heating pad (rectal temperature will be monitored) under a dissecting microscope. Following a (2.5-3 cm) midline cervical incision and a small incision of the larynx to provide a tracheostoma, by blunt preparation the right common carotid artery is exposed and cleared of connective tissue. A surgical stitch is employed to fix the stemocleidomastoid muscle aside to the right and increase access area to the right carotid artery. Care must be taken to avoid excessive vessel manipulation during procedures. […] Flow will be measured during these 60 minutes and for further 60 minutes (max time elapse 120 minutes) or until occlusion occurs. […]
Mice will be placed on a heating pad, to avoid a drop of body temperature. Heart rate (probe measuring the blood flow will also measure the heart rate) will be monitored during the surgery. […]

B1: NI-206.82C2: recombinant human memory B cell-derived monoclonal anti-FAP IgG1 antibody, variable regions in FIG. 1A, FAP inhibitory (antibody, V domains shown)
VH: QVQLQQSGPGLVKPSQTLSLTCAISGDSVSSNSVTWNWIRQSPSRGLEWLGRTYYRSKWYNDYAVSVKGRITINPDTSKNQFYLQLKSVTPEDAAVYYCARDSSILYGDYWGQGTLVTVSS
VL: QAVLTQPSSLSASPGASASLTCTLPSGINVGTYRIFWFQQKPGSPPQYLLSYKSDSDNHQGSGVPSRFSGSKDASANAGILLISGLQSEDEADYYCMIWHSSAWVFGGGTKLTVL
colorimetric signal against recombinant human FAP versus CD26 and unrelated human antigens (FAP): significantly greater | staining of CT-26 syngeneic liver metastasis sections [1]: found around the perimeter | Log-rank hazard ratio, arterial occlusion versus 43A11 [2]: 0.04
